# PMC10267580, “Structural basis of ELKS/Rab6B interaction and its role in vesicle capturing enhanced by liquid-liquid phase separation” (The Journal of Biological Chemistry, 2023)
# Assays:
# [1] = biological target: T1, Rab6B^Q72L, GTPase domain (residues 8-176), constitutively active mutant (mouse, UniProt P61294 8-176, Q72L); assay: SEC; analytical gel filtration, Superdex 200 Increase 10/300 GL, 50 mM Tris pH 7.5, 100 mM NaCl, 2 mM MgCl2, 1 mM DTT; details: both partners purified
# T1 construct: Rab6B, mouse, GenBank NM_173781.4, GTPase domain residues 8-176, with Q72L; Used in analytical gel filtration and ITC; The methods tell of tag cleavage (HRV 3C) only for crystallization, so the Trx-His6 tag was probably still on; also called continuously active mutant Rab6B^Q72L; active form of Rab6B; source: E. coli BL21(DE3), purified (Ni2+-NTA, size-exclusion chromatography)
# T1 sequence (P61294 8-176 Q72L): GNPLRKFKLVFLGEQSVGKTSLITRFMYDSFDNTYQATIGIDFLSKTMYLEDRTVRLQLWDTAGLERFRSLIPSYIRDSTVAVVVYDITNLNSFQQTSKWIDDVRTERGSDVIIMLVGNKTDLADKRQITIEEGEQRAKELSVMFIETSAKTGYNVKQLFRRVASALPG
# [2] = biological target: T1, Rab6B^Q72L, GTPase domain (residues …); assay: ITC; MicroCal PEAQ-ITC, 25 °C, 50 mM Tris pH 7.5, 100 mM NaCl, 2 mM MgCl2; typically one protein (400 μM) in the syringe into its binding protein (40 μM) in the cell; details: both partners purified
binding result [1],Kd [2],Binder
binds,,"ELKS1 C-terminal coiled-coil region (residues 761-927) (domain or fragment, rat, UniProt Q811U3 761-927, looked up, ELKS1 (Rab6IP2, CAST, ERC), rat, GenBank AY174115.1, residues 761-927; also called C-terminal fragment of ELKS1; source: E. coli BL21(DE3), purified (Ni2+-NTA, size-exclusion chromatography)) QVKDQNKKVANLKHKEQVEKKKSAQMLEEARRREDSLSDSSQQLQVEELLMAMEKVKQELESMKAKLSSTQQSLAEKETHLTNLRAERRKHLEEVLEMKQEALLAAISEKDANIALLELSSSKKKTQEEVAALKREKDRLVQQLKQQTQNRMKLMADNYEDDHFRSS"
,~8 µM,"ELKS1_RBD, Rab-binding domain of ELKS1 (residues 849-922) (domain or fragment, rat, UniProt Q811U3 849-922, looked up, As used in analytical gel filtration and ITC; source: E. coli BL21(DE3), purified (Ni2+-NTA, size-exclusion chromatography)) RKHLEEVLEMKQEALLAAISEKDANIALLELSSSKKKTQEEVAALKREKDRLVQQLKQQTQNRMKLMADNYEDD"
